The text below walks through data of patent publication US20260217847A1.

The target of assay [1] is TfR1 protein stably expressed on CHO-K1-TfR1 cells (UniProt P02786). As to the kind of experiment: cell-based or functional assay.
For assay [2], the target named is TfR1 on human erythroleukemia TF-1 cells (human) (UniProt P02786). As to the kind of experiment: cell-based or functional assay.
Sequence of TfR1 on human erythroleukemia TF-1 cells (human) (P02786 whole entry): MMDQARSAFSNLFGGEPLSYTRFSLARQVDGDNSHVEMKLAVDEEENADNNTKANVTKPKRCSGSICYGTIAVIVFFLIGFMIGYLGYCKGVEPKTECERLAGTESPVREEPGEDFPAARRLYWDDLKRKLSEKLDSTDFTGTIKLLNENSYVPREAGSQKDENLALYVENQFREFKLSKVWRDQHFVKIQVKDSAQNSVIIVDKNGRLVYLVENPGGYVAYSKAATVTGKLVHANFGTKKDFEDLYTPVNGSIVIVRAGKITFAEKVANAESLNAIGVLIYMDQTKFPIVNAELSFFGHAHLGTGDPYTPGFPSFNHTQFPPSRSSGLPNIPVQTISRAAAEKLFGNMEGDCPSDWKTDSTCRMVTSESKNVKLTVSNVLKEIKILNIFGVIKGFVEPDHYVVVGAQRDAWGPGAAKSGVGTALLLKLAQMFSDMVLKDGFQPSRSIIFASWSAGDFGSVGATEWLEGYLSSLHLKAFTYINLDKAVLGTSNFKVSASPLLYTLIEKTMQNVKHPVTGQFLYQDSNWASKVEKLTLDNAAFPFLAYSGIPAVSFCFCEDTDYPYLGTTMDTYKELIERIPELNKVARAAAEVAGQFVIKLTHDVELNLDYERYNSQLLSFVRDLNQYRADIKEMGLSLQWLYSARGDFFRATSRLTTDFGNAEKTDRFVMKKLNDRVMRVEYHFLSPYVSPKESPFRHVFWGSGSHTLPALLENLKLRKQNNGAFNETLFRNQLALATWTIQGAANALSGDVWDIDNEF

Sequence of Tab4, pabinafusp alfa targeting humanized TfR1 (antibody) (VH): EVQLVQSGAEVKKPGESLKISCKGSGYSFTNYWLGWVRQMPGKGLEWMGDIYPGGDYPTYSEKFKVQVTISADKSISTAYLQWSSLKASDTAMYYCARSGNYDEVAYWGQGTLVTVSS
Sequence of Tab4, pabinafusp alfa targeting humanized TfR1 (antibody) (VL): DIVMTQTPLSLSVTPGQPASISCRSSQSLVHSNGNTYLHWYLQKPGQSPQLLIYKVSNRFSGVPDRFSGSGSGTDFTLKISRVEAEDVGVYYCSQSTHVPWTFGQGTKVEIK
Sequence of TfR1 protein stably expressed on CHO-K1-TfR1 cells (P02786 whole entry): as the sequence (P02786 whole entry) above

In assay [1], “Tab4, pabinafusp alfa targeting humanized TfR1 (antibody)” returned a CHO-K1-TfR1 internalization, fold (MFI at 37° C. to MFI at 4° C.) of 2.36 fold; a CHO-K1-TfR1 internalization, pHrodo label, 4° C. MFI (background value) of 520 MFI; a CHO-K1-TfR1 internalization, pHrodo label, 37° C. MFI of 1230 MFI. In addition, in assay [2], the TF-1 cell internalization, fold (MFI at 37° C. to MFI at 4° C.) was 1.83 fold; the TF-1 cell internalization, pHrodo label, 4° C. MFI (background value) worked out at 712 MFI; the TF-1 cell internalization, pHrodo label, 37° C. MFI is 1300 MFI.
Take hIgG isotype control (antibody): in assay [1], the CHO-K1-TfR1 internalization, fold (MFI at 37° C. to MFI at 4° C.) was determined as 1.53 fold; the CHO-K1-TfR1 internalization, pHrodo label, 4° C. MFI (background value) is 464 MFI; the CHO-K1-TfR1 internalization, pHrodo label, 37° C. MFI is 711 MFI. In assay [2], this substance returned a TF-1 cell internalization, fold (MFI at 37° C. to MFI at 4° C.) of 1.01 fold; a TF-1 cell internalization, pHrodo label, 4° C. MFI (background value) of 471 MFI; a TF-1 cell internalization, pHrodo label, 37° C. MFI of 476 MFI.
